US20190177376A1

Target: human IgG (human)
Assay: ELISA, IgG coated on plate, detection with Strep-Tactin-HRP

domain B (from UniProt P38507 212-269) showed a Kd of 3.1 nM.
